# Laboratory results from IntAct's records for PubMed 11238952.
# B1: Cyclic AMP-dependent transcription factor ATF-4 (Homo sapiens), P18848 (parent)
# chain: MTEMSFLSSEVLVGDLMSPFDQSGLGAEESLGLLDDYLEVAKHFKPHGFSSDKAKAGSSEWLAVDGLVSPSNNSKEDAFSGTDWMLEKMDLKEFDLDALLGIDDLETMPDDLLTTLDDTCDLFAPLVQETNKQPPQTVNPIGHLPESLTKPDQVAPFTFLQPLPLSPGVLSSTPDHSFSLELGSEVDITEGDRKPDYTAYVAMIPQCIKEEDTPSDNDSGICMSPESYLGSPQHSPSTRGSPNRSLPSPGVLCGSARPKPYDPPGEKMVAAKVKGEKLDKKLKKMEQNKTAATRYRQKKRAEQEALTGECKELEKKNEALKERADSLAKEIQYLKDLIEEVRKARGKKRVP
# Variants of: B1
# Details: with BTRC
row,effect of a mutation on the interaction,Variant
1,decreasing interaction,D218N
2,decreasing interaction,S219N

# Variants of: B1
# Details: with BTRC
# Remark: another data set of the same source
row,effect of a mutation on the interaction,Variant
1,disrupting interaction,S219N
